What was measured:
human WISE [1] = target: T1, human WISE (human, UniProt Q6X4U4 24-206); test: murine hybridoma antibodies; assay not given
T1 construct: Recombinant protein secreted from mammalian cells; also called hWISE; huWISE
T1 sequence: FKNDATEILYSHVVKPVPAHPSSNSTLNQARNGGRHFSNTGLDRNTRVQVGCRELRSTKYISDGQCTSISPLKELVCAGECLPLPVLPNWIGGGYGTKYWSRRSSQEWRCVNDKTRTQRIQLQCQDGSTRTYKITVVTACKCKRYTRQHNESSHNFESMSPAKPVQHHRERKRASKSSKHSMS

human WISE [2] = target: T1, human WISE; test: capture ELISA binding profile (FIG. 23)
Experimental: (§1) Relative capture of individual WISE mutant proteins or wild type proteins by either neutralizing antibodies or non-neutralizing antibodies was compared to assess whether any of these single amino acid changes affects the binding of an antibody to WISE protein. The bound WISE proteins were then detected using HRP-conjugated affinity-purified polyclonal antibody against WISE.
(§2) Purified anti-WISE antibodies (0.5 ug/ml) were added onto high-binding ELISA plates pre-coated with 1 ug/ml of goat anti-mouse IgG Fc (Pierce). Plates were incubated for 1 hour in room temperature. Plates were then washed 4× with Wash Buffer. Subsequently alanine scanned WISE loop-2 mutant supernatants from transient transfection cultures (100× diluted) were added and incubated for 1 hour in room temperature. After 4× wash, rabbit anti-WISE Pab-biotin (50 ng/ml)+NeutrAvidin-HRP (Pierce, Cat #31001) were added onto the plates and incubated for 1 hour in room temperature. Plates were again washed 4× with Wash Buffer. Binding was analyzed using 1-Step Ultra TMB-ELISA substrate (Pierce; Cat #34028) according to the manufacturer's instructions.

human WISE G115A [3] = target: T2, human WISE G115A (human, UniProt Q6X4U4 24-206); test: capture ELISA, WISE mutant supernatant (FIG. 23)
T2 construct: Alanine mutant of loop 2, used as supernatant of transiently transfected mammalian cells
T2 chain: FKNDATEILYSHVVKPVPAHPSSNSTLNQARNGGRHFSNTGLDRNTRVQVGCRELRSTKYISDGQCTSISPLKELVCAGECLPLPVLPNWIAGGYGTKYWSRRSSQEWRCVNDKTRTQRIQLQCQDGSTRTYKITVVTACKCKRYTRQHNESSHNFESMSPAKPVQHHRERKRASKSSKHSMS
Experimental: as §1, §2

human WISE G117A [4] = target: T3, human WISE G117A (human, UniProt Q6X4U4 24-206); test: capture ELISA, WISE mutant supernatant (FIG. 23)
T3 construct: Alanine mutant of loop 2, used as supernatant of transiently transfected mammalian cells
T3 chain: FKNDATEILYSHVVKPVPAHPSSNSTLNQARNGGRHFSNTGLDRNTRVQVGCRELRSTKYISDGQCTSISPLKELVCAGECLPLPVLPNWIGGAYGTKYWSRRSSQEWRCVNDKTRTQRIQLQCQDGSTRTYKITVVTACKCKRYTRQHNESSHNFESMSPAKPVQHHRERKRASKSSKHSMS
Experimental: as §1, §2

human WISE [5] = target: T1, human WISE; test: capture ELISA binding profile (FIG. 24)
Experimental: as §1, §2

human WISE G115A [6] = target: T2, human WISE G115A; test: capture ELISA, WISE mutant supernatant (FIG. 24)
Experimental: as §1, §2

human WISE G117A [7] = target: T3, human WISE G117A; test: capture ELISA, WISE mutant supernatant (FIG. 24)
Experimental: as §1, §2

[8] = target: T4, biotinylated recombinant human WISE (human, UniProt Q6X4U4 24-206, biotinylated (site not stated)); test: Octet QK, crude conditioned medium, streptavidin biosensors with biotinylated human WISE
T4 construct: Same protein as m1, biotinylated; Used in the AlphaScreen with LRP6, in phage panning and on the Octet streptavidin biosensors; also called biotinylated huWise; biotinylated human WISE
T4 sequence: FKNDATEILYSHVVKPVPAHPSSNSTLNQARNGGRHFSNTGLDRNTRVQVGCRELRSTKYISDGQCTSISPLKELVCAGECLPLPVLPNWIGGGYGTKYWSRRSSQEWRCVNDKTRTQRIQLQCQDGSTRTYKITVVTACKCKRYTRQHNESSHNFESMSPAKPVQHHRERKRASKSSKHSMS
Experimental: Affinity maturation was performed on D14 IgG2 in order to improve the inhibitory activity. Every residue in all CDRs of heavy chain (31 positions) and light chain (29 positions) was mutated by randomized mutagenesis. Seven heavy chain mutations in 5 positions and ten light chain mutations in 6 positions that improved the binding to human WISE were identified by affinity measurement on Octet QK (ForteBio) using crude condition medium samples and streptavidin Biosensors coated with biotinylated human WISE. L34, L36, H66 and H127 were four top single-residue mutants. Beneficial heavy chain mutation and light chain mutation were paired in matrix by transient transfection in 293 6E cells to yield further improved double mutants (DM, one mutation in heavy chain and one in light chain). Ten DM mutants were selected. Two best heavy chain mutations (H66 and H127) were combined by overlapping PCR. The resulted heavy chain with double mutations was paired with L34 or L36 to yield two triple mutants (TM1 and TM2).

human WISE G115A [9] = target: T2, human WISE G115A; test: capture ELISA, WISE mutant supernatant (FIG. 25)
Experimental: as §1, §2

human WISE I114A [10] = target: T5, human WISE I114A (human, UniProt Q6X4U4 24-206); test: capture ELISA, WISE mutant supernatant (FIG. 25)
T5 construct: Alanine mutant of loop 2, used as supernatant of transiently transfected mammalian cells
T5 chain: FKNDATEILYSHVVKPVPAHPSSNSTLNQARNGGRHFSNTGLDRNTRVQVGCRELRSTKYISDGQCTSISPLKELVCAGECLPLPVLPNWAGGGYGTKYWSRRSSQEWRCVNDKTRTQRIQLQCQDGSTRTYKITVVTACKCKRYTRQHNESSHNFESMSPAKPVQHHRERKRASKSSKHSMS
Experimental: as §1, §2

human WISE K121A = target: T6, human WISE K121A (human, UniProt Q6X4U4 24-206); test: capture ELISA, WISE mutant supernatant (FIG. 25)
T6 construct: Alanine mutant of loop 2, used as supernatant of transiently transfected mammalian cells
T6 chain: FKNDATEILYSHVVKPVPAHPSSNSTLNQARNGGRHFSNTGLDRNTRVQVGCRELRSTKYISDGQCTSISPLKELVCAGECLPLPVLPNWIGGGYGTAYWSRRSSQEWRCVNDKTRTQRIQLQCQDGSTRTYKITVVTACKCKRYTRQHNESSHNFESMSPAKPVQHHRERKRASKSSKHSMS
Experimental: as §1, §2

human WISE N112A [11] = target: T7, human WISE N112A (human, UniProt Q6X4U4 24-206); test: capture ELISA, WISE mutant supernatant (FIG. 25)
T7 construct: Alanine mutant of loop 2, used as supernatant of transiently transfected mammalian cells
T7 chain: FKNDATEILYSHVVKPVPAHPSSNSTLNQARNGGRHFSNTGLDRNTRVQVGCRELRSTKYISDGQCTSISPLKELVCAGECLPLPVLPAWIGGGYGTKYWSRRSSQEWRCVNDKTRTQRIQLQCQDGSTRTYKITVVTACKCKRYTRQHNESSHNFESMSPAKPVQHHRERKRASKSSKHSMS
Experimental: as §1, §2

human WISE [12] = target: T1, human WISE; test: capture ELISA binding profile (FIG. 26)
Experimental: as §1, §2

human WISE I114A [13] = target: T5, human WISE I114A; test: capture ELISA, WISE mutant supernatant (FIG. 26)
Experimental: as §1, §2

human WISE N112A [14] = target: T7, human WISE N112A; test: capture ELISA, WISE mutant supernatant (FIG. 26)
Experimental: as §1, §2

B1: Ab-AD (antibody, V domains shown)
VH: EVQLQQSGTVLARPGASVKMSCKASGYTFTSYWMHWVKQRPGQGLEWIVAIYPGNSDTNYNQKFKGKAKLTAVTSTSTAYMELNSLTNEDSAVYYCVRGFITAPYFDYWGQGTTLTVSS
VL: DIQMTQSPASLAASVGESITITCQASENIYFSLAWYQQKQGRSPQLLIYHAKSLEDGVPSRFSGSGSGTQYSMKINSMQPEDTATYFCKQAYDHPFTFGTGTKLEMK
notes: Murine monoclonal antibody from hybridoma
**Q.** Does B1 bind (human WISE [1])?
**A.** Result: binds

B2: Ab-AI (antibody, V domains shown)
VH: QVTLKESGPGILQPSQTLSLTCSFSGFSLTTSGMGVSWIRQPSGGSLEWLAHIFWDDDKRYNPSLTSRLTISKDASRNQVFLKISSVDTADAATYYCARGGDYYSTGFGFDYWGQGTLVTVSA
VL: DIVVSQAPSSLAVSVGEKIIMSCKSSQSLLHSSNQRNYLAWYQQKPGQSPKLLISWASIRESGVPDRFTGSGSGTDFTLTISSVKTEDLAVYYCHQYYSYSTFGAGTKLELK
notes: Murine anti-WISE monoclonal antibody; also called WISE Loop 2 Mab (Ab-AI)
**Q.** Does B2 bind (human WISE [2])?
**A.** Result: binds

**Q.** Does B2 bind (human WISE G115A [3])?
**A.** Result: binds

**Q.** Does B2 bind (human WISE G117A [4])?
**A.** Result: binds

B3: Ab-AC (antibody, V domains shown)
VH: QVTLKESGPEILQPSQTLSLTCSFSGFSLTTSGMGVSWIRQPSGGSLEWLAHIFWDDDKRYNPSLTSRLTISKDAPRNQVFLKITSVDTADAATYYCARGGDYYSTGFGFDYWGQGTLVTVSA
VL: DIVVSQAPSSLAVSVGEKIIMSCKSSQSLLHSSNRRNYLAWYQQKPGQSPKLLISWASIRESGVPDRFTGSGSGTDFTLTISSVKTEDLAIYYCHQYYTYSTFGAGTKLELK
notes: Murine monoclonal antibody purified from hybridoma; also called WISE Loop 2 Mab (Ab-AC)
**Q.** What does the source list for B3?
**A.** binding result (human WISE [5]): binds; binding result (human WISE G115A [6]): binds; binding result (human WISE G117A [7]): binds

B4: D14 IgG2 single-residue mutant L34 (antibody, V domains shown)
VH: EVQLLESGGGLVQPGGSLRLSCAASGFTFSLYTMQWVRQAPGKGLEWVSGIGSSGGGTSYADSVKGRFTISRDNSKNTLYLQMNSLRAEDTAVYYCARGVSSWFFEYWGQGTLVTVSS
VL: QYELTQPPSVAVSPGKTASITCAGDELGGKYAAWYQQKPGQAPVLVVYDDSDRPSGIPERFSGSNSGNTATLTISRVEAGDEADYYCQVWDRSSYHVVFGGGTKLTVLG
notes: L34 is a mutant label, not a residue number; Tested as crude conditioned medium; also called L34(LC CDR1-7G)
**Q.** Does B4 bind [8]?
**A.** Result: binds

B5: D14 IgG2 single-residue mutant H127 (antibody, V domains shown)
VH: EVQLLESGGGLVQPGGSLRLSCAASGFTFSLYTMQWVRQAPGKGLEWVSGIGSSGGGTSYADSVKGRFTISRDNSKNTLYLQMNSLRAEDTAVYYCARGVSGWFFEYWGQGTLVTVSS
VL: QYELTQPPSVAVSPGKTASITCAGDELGNKYAAWYQQKPGQAPVLVVYDDSDRPSGIPERFSGSNSGNTATLTISRVEAGDEADYYCQVWDRSSYHVVFGGGTKLTVLG
notes: H127 is a mutant label, not a residue number; Tested as crude conditioned medium; also called H127(HC CDR3-4G)
**Q.** Does B5 bind [8]?
**A.** Result: binds

B6: D14-L36 (antibody, human IgG2, lambda, V domains shown)
VH: EVQLLESGGGLVQPGGSLRLSCAASGFTFSLYTMQWVRQAPGKGLEWVSGIGSSGGGTSYADSVKGRFTISRDNSKNTLYLQMNSLRAEDTAVYYCARGVSSWFFEYWGQGTLVTVSS
VL: QYELTQPPSVAVSPGKTASITCAGDELGSKYAAWYQQKPGQAPVLVVYDDSDRPSGIPERFSGSNSGNTATLTISRVEAGDEADYYCQVWDRSSYHVVFGGGTKLTVLG
notes: Tested as crude conditioned medium; also called L36(LC CDR1-7S); LC-CDR1-7 N->S
**Q.** Does B6 bind [8]?
**A.** Result: binds

B7: D14 IgG2 single-residue mutant H66 (antibody, V domains shown)
VH: EVQLLESGGGLVQPGGSLRLSCAASGFTFSLYTMQWVRQAPGKGLEWVSGIGSSGGPTSYADSVKGRFTISRDNSKNTLYLQMNSLRAEDTAVYYCARGVSSWFFEYWGQGTLVTVSS
VL: QYELTQPPSVAVSPGKTASITCAGDELGNKYAAWYQQKPGQAPVLVVYDDSDRPSGIPERFSGSNSGNTATLTISRVEAGDEADYYCQVWDRSSYHVVFGGGTKLTVLG
notes: H66 is a mutant label, not a residue number; Tested as crude conditioned medium; also called H66(HC CDR2-8P)
**Q.** Does B7 bind [8]?
**A.** Result: binds

B8: Ab-AA (antibody, V domains shown)
VH: EVQLQQSGAELVRSGASVKLSCTASGFNIKDYYIHWMKQRPEQGLEWIGWIDPENGDTESAPKFQGKATMTADTSSNTAYLHLSSLTFEDTAVYYCNAEGYGSRHWYFDVWGAGTTVTVSS
VL: DIVMSQSPSSLAVSAGEKVTMSCKSSQSLLNSRTRKNYLAWYQQKPGQSPKLLIYWASTRQSGVPDRFTGSGSGTDFTLTISSVQAEDLAVYYCKQSYNLLTFGAGTKLELK
notes: Murine monoclonal antibody purified from hybridoma; also called WISE Loop 2 Mab (Ab-AA)
**Q.** Does B8 bind (human WISE G115A [9])?
**A.** Result: binds

**Q.** Does B8 bind (human WISE I114A [10])?
**A.** Result: binds

**Q.** Does B8 bind (human WISE K121A)?
**A.** Result: binds

**Q.** Does B8 bind (human WISE N112A [11])?
**A.** Result: binds

**Q.** Does B8 bind (human WISE [1])?
**A.** Result: binds

B9: Ab-AH (antibody, V domains shown)
VH: EVQLQQSGAELVRSGASVRLSCTASGFNIKDFYMHWLKQRPEQGLEWIGWIDPENGDTESAPKFQGKATMTADTSSNTAYLQLSSLTSEDTAVYCCNAEGYDNSHWYFDVWGAGTTVTVSS
VL: DIVMSQSPSSLAVSAGEKVTMSCKSSQSLLNSRTRKNYLAWYQQKPGQSPKLLIYWASTRKSGVPDRFIGSGSGTDFTLTISSVQAEDLAVYYCKQSYNLVTFGAGTKLELK
notes: Murine anti-WISE monoclonal antibody; also called WISE Loop 2 Mab (Ab-AH)
**Q.** What does the source list for B9?
**A.** binding result (human WISE [12]): binds; binding result (human WISE I114A [13]): binds; binding result (human WISE N112A [14]): binds

From patent US20120288507A1 (Amgen, published 2012)
